Experimental data published in PMC8245648, “The R2R3-type MYB transcription factor MdMYB90-like is responsible for the enhanced skin color of an apple bud sport mutant”.

T1: MdMYB90-like (Malus domestica (Fuji apple / M_Fuji …, UniProt A0A498J9W0 1-206))
T1 sequence: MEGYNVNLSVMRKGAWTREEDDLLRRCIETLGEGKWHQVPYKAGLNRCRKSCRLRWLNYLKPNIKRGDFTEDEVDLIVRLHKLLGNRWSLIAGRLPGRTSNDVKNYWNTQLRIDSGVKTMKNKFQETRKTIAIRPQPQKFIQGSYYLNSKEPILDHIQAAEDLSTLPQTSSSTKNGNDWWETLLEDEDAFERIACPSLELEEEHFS

B1: BHLH3m probe (dsDNA)
DNA 1: CCTGCTCACTGGTAAATCAAACCCA
DNA 2: TGGGTTTGATTTACCAGTGAGCAGG
B2: CHS probe (dsDNA)
DNA 1: GACTAATTTCAACTGCTCCCAAAGT
DNA 2: ACTTTGGGAGCAGTTGAAATTAGTC
B3: MYB1 probe (dsDNA)
DNA 1: CGGACCACTCAACGGAACAAATAAG
DNA 2: CTTATTTGTTCCGTTGAGTGGTCCG
B4: CHSm probe (dsDNA)
DNA 1: GACTAATTTTGGTAACTCCCAAAGT
DNA 2: ACTTTGGGAGTTACCAAAATTAGTC
B5: UFGTm probe (dsDNA)
DNA 1: TGGTACAAATGGTAACAATAAAATA
DNA 2: TATTTTATTGTTACCATTTGTACCA
B6: MYB1m probe (dsDNA)
DNA 1: CGGACCACTTGGTAAAACAAATAAG
DNA 2: CTTATTTGTTTTACCAAGTGGTCCG
B7: UFGT probe (dsDNA)
DNA 1: TGGTACAAACAACTGCAATAAAATA
DNA 2: TATTTTATTGCAGTTGTTTGTACCA
B8: BHLH3 probe (dsDNA)
DNA 1: CCTGCTCACTAACCAATCAAACCCA
DNA 2: TGGGTTTGATTGGTTAGTGAGCAGG

Columns and labels:
[1] = target: T1, MdMYB90-like; experiment: competition; unlabeled mutant did not reduce binding to N5; EMSA, Beyotime Chemiluminescent EMSA Kit, 1x kit binding buffer, 10 uL total; salt, pH and temperature not stated; settings: protein: recombinant; tags: MBP (pMAL-c5X fusion); blunt
[2] = target: T1, MdMYB90-like; experiment: EMSA; EMSA, Beyotime Chemiluminescent EMSA Kit, 1x kit binding buffer, 10 uL total; salt, pH and temperature not stated; settings: protein: recombinant; tags: MBP (pMAL-c5X fusion); label: biotin; blunt
[3] = target: T1, MdMYB90-like; experiment: competition; unlabeled mutant did not reduce binding to N1; EMSA, Beyotime Chemiluminescent EMSA Kit, 1x kit binding buffer, 10 uL total; salt, pH and temperature not stated; settings: protein: recombinant; tags: MBP (pMAL-c5X fusion); blunt
[4] = target: T1, MdMYB90-like; experiment: competition; unlabeled mutant did not reduce binding to N3; EMSA, Beyotime Chemiluminescent EMSA Kit, 1x kit binding buffer, 10 uL total; salt, pH and temperature not stated; settings: protein: recombinant; tags: MBP (pMAL-c5X fusion); blunt
[5] = target: T1, MdMYB90-like; experiment: competition; unlabeled mutant did not reduce binding to N7; EMSA, Beyotime Chemiluminescent EMSA Kit, 1x kit binding buffer, 10 uL total; salt, pH and temperature not stated; settings: protein: recombinant; tags: MBP (pMAL-c5X fusion); blunt

Row | Binder | binding result [2] | also measured
1 | B1 | – | binding result [1]: no binding
2 | B2 | binds | –
3 | B3 | binds | –
4 | B4 | – | binding result [3]: no binding
5 | B5 | – | binding result [4]: no binding
6 | B6 | – | binding result [5]: no binding
7 | B7 | binds | –
8 | B8 | binds | –
